Measurements reported in paper doi:10.1101/2020.09.10.290023.

Tests used:
[1] = target: Donor (Alexa 488)-labeled, biotinylated Avi-C-Aβ42 (Avi-D-Aβ42) (UniProt P05067); test: FRET or BRET
[2] = target: Donor-labeled tetramerization domain (TD) of p53 with AviTag (Avi-D-TD); test: FRET or BRET

Substance | Kd [1] | stoichiometry N [1] | stoichiometry N [2]
Acceptor (Alexa 594)-labeled C-Aβ42 (A-Aβ42) (from UniProt P05067 672-713) (peptide) | 240 µM | > 10 | –
Acceptor-labeled tetramerization domain (TD) of p53 (TD-A) (domain or fragment) | – | – | 4
